According to patent US20190351049A1 (Regeneron, published 2019):
Like-named read-outs stand apart in the source and are kept apart here.

B1: H2aM15271N (antibody, V domains shown)
VH: EVQLVESGGALVQPGGSLRLSCAASGFIFGSYEMNWVRQAPGKGLEWLSYISSSGSTIYYADSVKGRFTISRDNAKNSLYLQMNSLRAEDTAVYYCARERGQLGRGGYYYYGMDVWGQGTTVTVSS
VL: EIVLTRSPGTLSLSPGERATLSCRASQSVSSSYLAWYHQKPGQAPRLLMYGTSIRATGIPDRFSGSGSGTDFTLTISRLEPEDFAVYYCQQYGSSPPWTFGQGTKVEIK
B2: H1M15290N (antibody, V domains shown)
VH: QVQLVQSGAEVKKPGSSVKVSCKASGGTFSTYAISWVRQAPGQGLEWMGGIIPFFGTANYAQKFQGRVTITTDESTSTAYMELSSLRSEDTAVYYCAREGTYYDSLTGYYTHYYRMDVWGQGTTVTVSS
VL: not shown
B3: H2aM15287N (antibody, V domains shown)
VH: QLQLQESGPGLVKPSETLSLTCTVSGGSISSGNYYWGWIRQPPGKGLEWFGTIYYSGSTYYNPSLKSRVTISVDTSKNQFSLKLSSVTAADTAVYYCARRAAVGHFDYWGQGTLVTVSS
VL: DIQMTQSPSTLSASVGDRVTITCRASQSISTWLAWYQQKPGKAPKLLIYEASSLESGVPSRFSGSGFGTEFTLTISRLQPDDFATYFCQQYNTYWTFGQGTKVEIK
B4: H1M15293N (antibody, V domains shown)
VH: QVQLVQSGAEVKKPGSSVKVSCKVSGVTFSSYAISWVRQAPGQGLEWMGGIIPFFGTASYAQKFQGRVTVTTDESTSTAYMEVSSLRSEDTAVYYCARDNPELTKEGYYHYYAMDVWGQGTTVTVSS
VL: not shown
B5: H2aM15279N (antibody, V domains shown)
VH: EVQLLESGGGLVQTGGSLRLSCAASGFTFSNYAMSWVRQAPGKGLEWVSAISDRGGSIYYADSVKGRFTISRDNSKNTKYLQMDSLRAEDTAVYYCAQDRGFGVFDYWGQGTLVTVSS
VL: DIQMTQSPSSLSASVGDRVTITCQASQDIGNYLNWFQQRPGKAPNLLIYGASNLETGVPSRFSGGGSGTDFTFTISSLQPEDIATYFCQQYDNLPFTFGPGTKVEIK
B6: H2aM15278N (antibody, V domains shown)
VH: QVQLVQSGAEVKKPGASVKVSCKASGYTFTSHGISWVRQAPGQGFEWMGWIGTYNSNTDYAQNFQGRVTMTTDTSTSTAYMELRNLRSDDTAVYYCARERGPYYGMDVWGQGTTVTVSS
VL: EIVLAQSPGTLSLSPGERATLSCRASQSVNSNYLAWYQQKPGQAPRLLIYGASSRATGIPDRFSGSGSGTDFTLTISRLEPEDFAVYYCQQYGNSLTFGPGTKVDFK
B7: H1M15289N (antibody, V domains shown)
VH: QVQLQESGPGLVKPSETLSLTCTVSGGSISSYYWSWIRQPPGKGLEWIGYIYYSGSANYNPSLKSRVTISVDTSKNQFSLKLSSVTAADTAVYYCVRDRDLLLDHWGQGTLVTVSS
VL: EIVMTQSPATLSVSPGKRATLSCRASQSVSSNLAWYQQKPGQAPRLLIYGASTRTTGFPARFSGSGSGTDFTLTISSLQSEDFAVYYCQQYNNWPYTFGQGTMLEIK
B8: H1M15269N (antibody, V domains shown)
VH: EVQLLESGGGLVQPGGSLRLSCPASGFTFSNYAMTWVRQAPGKGLEWVSAISGSGATTKYADSVKGRFTISRDNSRNTLYLQMNSLRAEDTAVYYCAKGGSGSYFPYYYYGLDVWGQGTTVTVSS
VL: EIVMTQSPATLSVSPGDSATLSCRASQTVSSNLAWYQQKPGQAPRLLIYGASTRATGIPARFSGSGSGTEFTLTISSLQSEDFAVYYCQQYYNWWTFGQGTKVEIK
B9: H1M15267N (antibody, V domains shown)
VH: QVQLQESGPGLVKPSETLSLTCTVSGGSISSYYWSWIRQPPGKGLEWIGYIYYSGSPNYNPSLKSRVTISVDTSKNQFSLKLTSVTAADTAVYYCARSLNWGPPFDYWGQGTLVTVSS
VL: not shown
B10: H1H15188P (antibody, V domains shown)
VH: QVQLVQSGAEVKKPGSSVKVSCKASGGSFSVYAISWVRQAPGQGLEWMGGIIPIFGTANYAQKFQDRFTITTDESTSTAYMELSSLRSEDTAMYYCAREGDIVVLPAGKGGMDVWGQGTTVTVSS
VL: DIVMTQSPLSLPVTPGEPASISCRSSQSLLHGNGYNYLDWYLQKPGQSPQLLIYLVSHRASGVPDRFSGSGSGTDFTLKISRVEAEDVGVYYCMQALQSPWTFGQGTKVEIK
B11: H2aM15270N (antibody, V domains shown)
VH: EVQLLESGGGLEQPGGSLRLSCAASGFTFSSYAMIWVRQAPGKGLEWVSTISGSGVNTYYADSVKGRFTISRDNSKNTLHLQMNSLRAEDTAVYHCAKEGLDCANGVCYNYYGMDVWGQGTTVTVSS
VL: DIQMTQSPSSLSASVGDRVTITCRASQSINSFLNWYHQKPGKAPKFLIYSASNLQSGVPSRFSGSGSGTDFTLTISSLQPEDFSTYYCQQSYSIPLTFGGGTKVEIK
B12: H1H15177P (antibody, V domains shown)
VH: EVQLVESGGGLVQPGGSLRLSCSASGFTFSSYDMSWVRQAPGKGLEWVSAIRGSGHTTYYADSVKGRFTISRDNSKNTLYLEMNSLRAEDTAVYYCVKDGSIVGFDPWGQGTLVTVSS
VL: not shown
B13: H2bM15291N (antibody, V domains shown)
VH: QVQLVQSGAEVKKPGSSVKVSCKASGDTFSTYAVSWVRQAPGQGLEWMGGIIPFFGTSNYAQKFQGRVTITTDESTTTAYMELNSLRSEDTAVYYCAREITMVRGLTNYHFYGMDVWGQGTTVTVSS
VL: not shown
B14: H2bM15292N (antibody, V domains shown)
VH: QVQLVQSGAEVKKPGSSVKVSCKASGGTFNNYAISWVRQAPGQGLEWMGGIIPFFGTTNYAQKFQDRVTITSDDSTITAYMELSRLRSEDTAVYYCARDEPRRDGYNYYHYYYMDVWGQGTTVTVSS
VL: DIQMTQSPSSLSASVGDRVTITCRASQSINSYLNWYQQKPGKAPNLLIYAASSLQSGVPSRFSGSGSGTDFTLTISSLHPEDFATYYCQQSYSTPPITFGQGTRLEIK
B15: H1H15203P (antibody, V domains shown)
VH: EVQLVESGGDLVQPGGSLRVSCAASGFTFSNYDMYWVRQAPGKGLEWVSVISGIGATTYYADSVKGRFTISRDNSKNTVFLQMNSLRAEDTAVYYCVKGGPIVATDYWGQGTLVTVSS
VL: not shown
B16: H1M15280N (antibody, V domains shown)
VH: EVQLLESGGGLVQPGGSLRLSCAASGFTFSSYAMSWVRQAPGKGLEWVSAISGSGSSTYYADSVKGRFTISRDNSKNTLFLQMNSLRAEDTAVYYCAEGGDVDFDYWGQGTLVTVSS
VL: not shown
B17: H1H15211P (antibody, V domains shown)
VH: EVQLVESGGGLVQPGGSLRLSCVVSGFTFSNYDMSWVRQAPGRGLEWVSAIRGSGFNTYYADSVKGRFTISRDNSKNTLYLQMNSLRAEDTAVYYCAKDGSIVSMDYWGQGTLVTVSS
VL: not shown
B18: H1M15277N (antibody, V domains shown)
V domain 1: EVQLLESGGGLVQPGGSLRLSCAASGFTFSSYAMSWVRQAPGKGLEWVSAISGRGGNTYYADSVKGRFTISRDNSKNTLFLQMNTLRAEDTAVYYCAKDRGFGFFDIWGRGTLATVSS
V domain 2: not shown
B19: H2aM15281N (antibody, V domains shown)
VH: QVQLVQSGAEVKKPGSSVKVSCKASKDTFSSYAISWVRQAPGQGLEWMGGIIPFFGTTTYEQKFQGRVTITTDESTRTAYMELSSLRSEDSAVYYCARDRPCISSAGTRYHYCVMDVWGQGTTVTVSS
VL: not shown
B20: H2aM15272N (antibody, V domains shown)
VH: QVRLVQSGAEVKKPGSSVKVSCKASGDTFSSYAISWVRQAPGQGLEWMGGIIPFFVTTTYAQNFQGRVTITTDESTRTAYMELSSLRSEDSAVYYCARDRPCISSAGTRYHYCVMDVWGQGTTVTVSS
VL: not shown

Experiments:
[1] = biological target: T1, MERS-CoV spike protein (EMC/2012), wt (MERS-CoV (isolate EMC/2012), UniProt K9N5Q8 18-1353); test: cell-based or functional assay
[2] = biological target: T1, MERS-CoV spike protein (EMC/2012), wt; test: cell-based or functional assay; remark: listed apart in the source
[3] = biological target: T1, MERS-CoV spike protein (EMC/2012), wt; test: cell-based or functional assay; remark: listed apart in the source
MERS-RBD-mFc = MERS-RBD-mFc (MERS-CoV (isolate EMC/2012), UniProt K9N5Q8 367-606); test: Octet BLI, MERS.mFc captured on the sensor, then mAb-1 applied

| Binder | IC50 against MERSpp [1] [nM] | IC50 against live virus (EMC2012) [1] [nM] | % Neutralization (.025 µg/ml), MERSpp infectivity [2] [%] | Neutralization IC50 (M), MERSpp infectivity [2] [M] | IC50 against MERSpp [3] [nM] | IC50 against live virus (EMC2012) [3] [nM] | mAb-1 Binding (nm) (MERS-RBD-mFc) |
| --- | --- | --- | --- | --- | --- | --- | --- |
| B1 | 0.127 | 1.03 | 97 | 2.74e-10 | – | – | – |
| B2 | 0.21 | 2.55 | 83 | 5.84e-10 | – | – | – |
| B3 | 2.93 | 8.92 | 5 | 3.59e-09 | – | – | – |
| B4 | 0.258 | 2.58 | 86 | 4.36e-10 | – | – | – |
| B5 | 0.0939 | 0.825 | 97 | 1.38e-10 | – | – | – |
| B6 | 0.142 | 0.644 | 98 | 2.11e-10 | – | – | – |
| B7 | 0.281 | 3.15 | 89 | 4.25e-10 | – | – | – |
| B8 | 0.688 | 6.8 | 40 | 1.02e-09 | – | – | – |
| B9 | 0.0998 | 0.891 | 99 | 1.49e-10 | – | – | – |
| B10 | – | – | – | – | 0.062 | 0.505 | 0.54 |
| B11 | 0.102 | 0.711 | 98 | 3.25e-10 | – | – | – |
| B12 | – | – | – | – | 0.0457 | 0.629 | 0.6 |
| B13 | 0.186 | 2.22 | 90 | 3.05e-10 | – | – | – |
| B14 | 0.113 | 2.26 | 91 | 3.57e-10 | – | – | – |
| B15 | – | – | – | – | 0.0765 | 0.826 | 0.51 |
| B16 | 0.111 | 0.763 | 97 | 1.76e-10 | – | – | – |
| B17 | – | – | – | – | 0.0474 | 0.369 | 0.76 |
| B18 | 0.0646 | 0.287 | 99 | 1.33e-10 | – | – | – |
| B19 | 0.0785 | 0.292 | 98 | 4.64e-10 | – | – | – |
| B20 | 0.0723 | 0.569 | 97 | 2.21e-10 | – | – | – |
